Test results reported in publication PMC11417181, “The SCR-17 and SCR-18 glycans in human complement factor H enhance its regulatory function” (The Journal of Biological Chemistry, 2024).
glycan = not defined here

B1: SCR-18H, glycosylated single-domain fragment of complement factor H expressed in Pichia pastoris (domain or fragment)
chain: RDTSCVNPPTVQNAYIVSRQMSKYPSGERVRYQCRSPYEMFGDEEVMCLNGN(glycan)WTEPPQCKDST
modifications: reading uncertain; also: N-linked hyperglycosylation (Pichia) at Asn1077, recombinant protein
B2: SCR-17H, glycosylated single-domain fragment of complement factor H expressed in Pichia pastoris (domain or fragment)
chain: IKTDCLSLPSFENAIPMGEKKDVYKAGEQVTYTCATYYKMDGASN(glycan)VTCINSRWTGRPTCRDTS
modifications: reading uncertain; also: N-linked hyperglycosylation (Pichia) at Asn1011, recombinant protein
B3: SCR-16/20, glycosylated five-domain C-terminal fragment of complement factor H expressed in Pichia pastoris (domain or fragment)
chain: EGLPCKSPPEISHGVVAHMSDSYQYGEEVTYKCFEGFGIDGPAIAKCLGEKWSHPPSCIKTDCLSLPSFENAIPMGEKKDVYKAGEQVTYTCATYYKMDGASNVTCINSRWTGRPTCRDTSCVNPPTVQNAYIVSRQMSKYPSGERVRYQCRSPYEMFGDEEVMCLNGNWTEPPQCKDSTGKCGPPPPIDNGDITSFPLSVYAPASSVEYQCQNLYQLEGNKRITCRNGQWSEPPKCLHPCVISREIMENYNIALRWTAKQKLYSRTGESVEFVCKRGYRLSSRSHTLRTTCWDGKLEYPTCAKR
modifications: Pichia hyperglycosylated N-linked glycans at Asn1011 and Asn1077
B4: SCR-16/20 deglycosylated with PNGase F (domain or fragment)
chain: B3 chain
modifications: N-linked glycans at Asn1011 and Asn1077 removed with PNGase F
B5: SCR-17/18H, glycosylated two-domain fragment of complement factor H expressed in Pichia pastoris (domain or fragment)
chain: IKTDCLSLPSFENAIPMGEKKDVYKAGEQVTYTCATYYKMDGASNVTCINSRWTGRPTCRDTSCVNPPTVQNAYIVSRQMSKYPSGERVRYQCRSPYEMFGDEEVMCLNGNWTEPPQCKDST
modifications: Pichia hyperglycosylated N-linked glycans (Man8-18GlcNAc2) at Asn1011 and Asn1077
B6: SCR-16/18H, glycosylated three-domain fragment of complement factor H expressed in Pichia pastoris (domain or fragment)
chain: EGLPCKSPPEISHGVVAHMSDSYQYGEEVTYKCFEGFGIDGPAIAKCLGEKWSHPPSCIKTDCLSLPSFENAIPMGEKKDVYKAGEQVTYTCATYYKMDGASNVTCINSRWTGRPTCRDTSCVNPPTVQNAYIVSRQMSKYPSGERVRYQCRSPYEMFGDEEVMCLNGNWTEPPQCKDST
modifications: Pichia hyperglycosylated N-linked glycans at Asn1011 and Asn1077
B7: SCR-16/18H deglycosylated with PNGase F (domain or fragment)
chain: B6 chain
modifications: N-linked glycans at Asn1011 and Asn1077 treated with PNGase F (the paper suggests that removal may have been impeded)
B8: complement factor H, native glycosylated, full-length, purified from human plasma (natural protein, UniProt P08603 19-1231, looked up)
chain: EDCNELPPRRNTEILTGSWSDQTYPEGTQAIYKCRPGYRSLGNVIMVCRKGEWVALNPLRKCQKRPCGHPGDTPFGTFTLTGGNVFEYGVKAVYTCNEGYQLLGEINYRECDTDGWTNDIPICEVVKCLPVTAPENGKIVSSAMEPDREYHFGQAVRFVCNSGYKIEGDEEMHCSDDGFWSKEKPKCVEISCKSPDVINGSPISQKIIYKENERFQYKCNMGYEYSERGDAVCTESGWRPLPSCEEKSCDNPYIPNGDYSPLRIKHRTGDEITYQCRNGFYPATRGNTAKCTSTGWIPAPRCTLKPCDYPDIKHGGLYHENMRRPYFPVAVGKYYSYYCDEHFETPSGSYWDHIHCTQDGWSPAVPCLRKCYFPYLENGYNQNYGRKFVQGKSIDVACHPGYALPKAQTTVTCMENGWSPTPRCIRVKTCSKSSIDIENGFISESQYTYALKEKAKYQCKLGYVTADGETSGSITCGKDGWSAQPTCIKSCDIPVFMNARTKNDFTWFKLNDTLDYECHDGYESNTGSTTGSIVCGYNGWSDLPICYERECELPKIDVHLVPDRKKDQYKVGEVLKFSCKPGFTIVGPNSVQCYHFGLSPDLPICKEQVQSCGPPPELLNGNVKEKTKEEYGHSEVVEYYCNPRFLMKGPNKIQCVDGEWTTLPVCIVEESTCGDIPELEHGWAQLSSPPYYYGDSVEFNCSESFTMIGHRSITCIHGVWTQLPQCVAIDKLKKCKSSNLIILEEHLKNKKEFDHNSNIRYRCRGKEGWIHTVCINGRWDPEVNCSMAQIQLCPPPPQIPNSHNMTTTLNYRDGEKVSVLCQENYLIQEGEEITCKDGRWQSIPLCVEKIPCSQPPQIEHGTINSSRSSQESYAHGTKLSYTCEGGFRISEENETTCYMGKWSSPPQCEGLPCKSPPEISHGVVAHMSDSYQYGEEVTYKCFEGFGIDGPAIAKCLGEKWSHPPSCIKTDCLSLPSFENAIPMGEKKDVYKAGEQVTYTCATYYKMDGASNVTCINSRWTGRPTCRDTSCVNPPTVQNAYIVSRQMSKYPSGERVRYQCRSPYEMFGDEEVMCLNGNWTEPPQCKDSTGKCGPPPPIDNGDITSFPLSVYAPASSVEYQCQNLYQLEGNKRITCRNGQWSEPPKCLHPCVISREIMENYNIALRWTAKQKLYSRTGESVEFVCKRGYRLSSRSHTLRTTCWDGKLEYPTCAKR
modifications: eight N-linked biantennary complex-type glycans, among them those at Asn1011 (SCR-17) and Asn1077 (SCR-18)
notes: human complement factor H, 20 SCR domains, Tyr402 form; For the SPR self-association experiment the immobilised copy was biotinylated (EZ-Link Biotinylation kit) and captured on a streptavidin chip; the copy in solution was not labelled; also called CFH; native CFH
B9: fully deglycosylated complement factor H (200 h PNGase F) (natural protein, human, UniProt P08603 19-1231, looked up)
chain: B8 chain
modifications: N-linked glycans removed with PNGase F: eight, seven, six or five removed, leaving none, one, two or three glycans
notes: Mixture of forms with none to three glycans left; also called fully deglycosylated CFH; CFH-De; source: purified from human plasma, then PNGase F for 200 h at 37 °C, gel filtration
B10: partially deglycosylated complement factor H (100 h PNGase F) (natural protein, human, UniProt P08603 19-1231, looked up)
chain: B8 chain
modifications: N-linked glycans partly removed with PNGase F: forms with three to six glycan chains were present
notes: Mixture of glycoforms; also called partially deglycosylated CFH; CFH partially glycosylated; source: purified from human plasma, then PNGase F for 100 h at 37 °C, gel filtration

Target: the molecule itself
Test: AUC; sedimentation velocity of the SCR fragments, 20 °C, 50,000 rpm, Hepes buffer (10 mM Hepes, 137 mM NaCl, pH 7.4), c(s) analysis in SEDFIT, proportions of monomer and dimer from peak integration; monomer to dimer
Settings: not given
With B1 the “stoichiometry N” value was 2. B2 was tested, and the “stoichiometry N” value was 2. B3 was tested, and the “stoichiometry N” value was 2. In the case of B4, the “stoichiometry N” value is reported as 2. B5 was tested, and the “stoichiometry N” value was 2. B6 was tested, and the “stoichiometry N” value was 2. In the case of B7, the “stoichiometry N” value is reported as 2.

The binders below were run against T1, complement C3b (human, UniProt P01024 23-667; P01024 749-1663, free thiol group in C3b blocked with iodoacetamide (the paper does not say on which chain)) (assay: SPR; Biacore X100, C3b amine-coupled to a CM5 chip, CFH preparations flowed at 0.05 to 7.75 μM, 25 °C, Hepes buffer with 0.005% Tween20, single-cycle, 1:1 steady-state affinity fit). Settings: both partners purified.
T1 construct: Amine-coupled to a CM5 chip in the SPR experiment
T1 sequence (P01024 23-667, chain 1 of 2): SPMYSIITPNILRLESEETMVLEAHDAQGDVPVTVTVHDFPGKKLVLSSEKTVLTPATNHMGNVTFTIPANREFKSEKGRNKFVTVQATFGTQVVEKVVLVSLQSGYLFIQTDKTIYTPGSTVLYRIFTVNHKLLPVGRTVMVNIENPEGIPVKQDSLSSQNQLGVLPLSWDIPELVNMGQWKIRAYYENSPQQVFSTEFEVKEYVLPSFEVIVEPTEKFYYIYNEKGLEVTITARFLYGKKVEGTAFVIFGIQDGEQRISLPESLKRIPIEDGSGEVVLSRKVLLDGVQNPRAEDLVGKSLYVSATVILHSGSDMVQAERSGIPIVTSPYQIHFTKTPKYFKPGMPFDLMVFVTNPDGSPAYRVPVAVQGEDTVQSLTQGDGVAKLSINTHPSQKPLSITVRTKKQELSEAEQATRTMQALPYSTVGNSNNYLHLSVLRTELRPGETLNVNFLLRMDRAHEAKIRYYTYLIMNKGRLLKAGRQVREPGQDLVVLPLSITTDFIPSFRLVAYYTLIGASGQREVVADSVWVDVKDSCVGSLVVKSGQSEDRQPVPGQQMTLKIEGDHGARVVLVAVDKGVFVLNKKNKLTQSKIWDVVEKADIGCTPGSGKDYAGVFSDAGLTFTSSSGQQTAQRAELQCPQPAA
T1 sequence (P01024 749-1663, chain 2 of 2): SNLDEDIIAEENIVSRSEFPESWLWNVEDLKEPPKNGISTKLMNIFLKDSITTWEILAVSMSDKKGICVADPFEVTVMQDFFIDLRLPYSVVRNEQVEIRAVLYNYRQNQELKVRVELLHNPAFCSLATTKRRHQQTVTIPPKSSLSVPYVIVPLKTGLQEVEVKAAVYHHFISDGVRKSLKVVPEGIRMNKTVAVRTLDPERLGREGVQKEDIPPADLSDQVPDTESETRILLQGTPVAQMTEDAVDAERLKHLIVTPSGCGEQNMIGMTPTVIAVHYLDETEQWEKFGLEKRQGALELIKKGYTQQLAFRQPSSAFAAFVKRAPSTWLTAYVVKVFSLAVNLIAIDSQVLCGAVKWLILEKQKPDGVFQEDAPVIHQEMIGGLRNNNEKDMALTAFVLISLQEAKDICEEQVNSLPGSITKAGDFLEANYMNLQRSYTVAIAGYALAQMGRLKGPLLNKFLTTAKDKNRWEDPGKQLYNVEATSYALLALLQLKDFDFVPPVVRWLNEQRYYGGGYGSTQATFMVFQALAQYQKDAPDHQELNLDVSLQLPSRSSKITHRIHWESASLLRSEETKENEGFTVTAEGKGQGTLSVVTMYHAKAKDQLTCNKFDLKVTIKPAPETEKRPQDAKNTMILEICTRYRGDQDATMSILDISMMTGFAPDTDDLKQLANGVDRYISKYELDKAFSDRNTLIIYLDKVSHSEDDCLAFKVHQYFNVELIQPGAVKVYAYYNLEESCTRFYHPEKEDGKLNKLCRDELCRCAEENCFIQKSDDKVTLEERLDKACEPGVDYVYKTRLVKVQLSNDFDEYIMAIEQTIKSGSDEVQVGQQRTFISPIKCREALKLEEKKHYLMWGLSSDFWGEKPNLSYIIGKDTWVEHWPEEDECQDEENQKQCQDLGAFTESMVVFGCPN
Binder B8 has a Kd of 900 ± 60 nM. With B9 the Kd was 3780 ± 450 nM. With B10 the Kd was 2530 ± 420 nM.

Target: the molecule itself
Test: AUC; sedimentation velocity of the SCR fragments, 20 °C, 50,000 rpm, Hepes buffer (10 mM Hepes, 137 mM NaCl, pH 7.4), c(s) analysis in SEDFIT, proportions of monomer and dimer from peak integration; monomer to dimer
Settings: not given
Remark: another data set of the same source
B1 showed a proportion of dimer of 57%. For B2, the proportion of dimer was 67%. For B3, the proportion of dimer was 8%. Work on B4 yielded a proportion of dimer of 2%. B5 showed a proportion of dimer of 72%. B6 was tested, and the proportion of dimer was 78%. B7 gave a proportion of dimer of 63%.
